Assay results: article PMC4666394, “Human HLTF mediates postreplication repair by its HIRAN domain-dependent replication fork remodelling”

Key:
[1] = molecular target: T1, HLTF HIRAN domain NN90,91AA (human, UniProt Q14527 56-168, N90A;N91A); assay: EMSA; Competition: 20 mM HEPES pH 7.5, 150 mM NaCl, 1 mM DTT, 0.1 ug/mL BSA, 0.2% NP40, 10% glycerol, room temperature 15 min; 6% native PAGE 0.5x Tris-borate without EDTA at 4 C; direct gel shift as in cited earlier work; conditions: protein: recombinant, tags: FLAG or GST-FLAG, label: 5' 32P
T1 sequence: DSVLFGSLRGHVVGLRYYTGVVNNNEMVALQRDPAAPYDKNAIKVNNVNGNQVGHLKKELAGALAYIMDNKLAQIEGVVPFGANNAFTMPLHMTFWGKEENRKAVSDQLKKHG

[2] = molecular target: T2, HLTF HIRAN domain WT (human, UniProt Q14527 56-168); assay: as above; conditions: protein: recombinant, tags: FLAG (GST-FLAG cleaved by PreScission) or GST-FLAG, label: 5' 32P
T2 sequence: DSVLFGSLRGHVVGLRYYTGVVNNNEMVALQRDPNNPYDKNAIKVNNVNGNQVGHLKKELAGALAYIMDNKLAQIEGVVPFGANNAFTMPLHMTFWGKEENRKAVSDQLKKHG

[3] = molecular target: T2, HLTF HIRAN domain WT; assay: EMSA; high affinity; Competition: 20 mM HEPES pH 7.5, 150 mM NaCl, 1 mM DTT, 0.1 ug/mL BSA, 0.2% NP40, 10% glycerol, room temperature 15 min; 6% native PAGE 0.5x Tris-borate without EDTA at 4 C; direct gel shift as in cited earlier work; conditions: protein: recombinant; tags: FLAG (GST-FLAG cleaved by PreScission) or GST-FLAG; label: 5' 32P; fork 1:4 2:3 3:4; two 30 bp daughter arms, 45 bp parental duplex, no ss region
[4] = molecular target: T3, GST-FLAG-HIRAN (WT) (human, UniProt Q14527 56-168); assay: competition; 0-1 uM competitor against Cy5 fork; competes better than ssDNA; Competition: 20 mM HEPES pH 7.5, 150 mM NaCl, 1 mM DTT, 0.1 ug/mL BSA, 0.2% NP40, 10% glycerol, room temperature 15 min; 6% native PAGE 0.5x Tris-borate without EDTA at 4 C; direct gel shift as in cited earlier work; conditions: protein: recombinant; tags: GST-FLAG; label: 5' fluorescein on strand 4 (O3063); fork 1:4 2:3 3:4; two 30 bp daughter arms, 45 bp parental duplex, no ss region
T3 sequence: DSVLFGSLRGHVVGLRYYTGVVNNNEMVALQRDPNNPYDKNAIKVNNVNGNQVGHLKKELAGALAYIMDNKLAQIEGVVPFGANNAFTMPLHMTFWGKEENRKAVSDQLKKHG

[5] = 30 bp duplex, 5' overhang 45 nt on strand 2

B1: ds75-mer O1058/O1118 (dsDNA)
DNA 1: AGCTACCATGCCTGCCTCAAGAATTCGTAATATGCCTACACTGGAGTACCGGAGCATCGTCGTGACTGGGAAAAC
DNA 2: GTTTTCCCAGTCACGACGATGCTCCGGTACTCCAGTGTAGGCATATTACGAATTCTTGAGGCAGGCATGGTAGCT
binding result ([1]; blunt): no binding | binding result ([2]; blunt): no binding

B2: replication fork O1054/O1056/O1058/O1118 (structured_DNA)
DNA 1: AGCTACCATGCCTGCCTCAAGAATTCGTAA
DNA 2: TTACGAATTCTTGAGGCAGGCATGGTAGCT
DNA 3: AGCTACCATGCCTGCCTCAAGAATTCGTAATATGCCTACACTGGAGTACCGGAGCATCGTCGTGACTGGGAAAAC
DNA 4: GTTTTCCCAGTCACGACGATGCTCCGGTACTCCAGTGTAGGCATATTACGAATTCTTGAGGCAGGCATGGTAGCT
binding result ([1]; fork 1:4 2:3 3:4, two 30 bp daughter arms, 45 bp parental duplex, no ss region): no binding | binding result [3]: binds

B3: replication fork O1054/O1056/O1058/O3063 (structured_DNA)
DNA 1: AGCTACCATGCCTGCCTCAAGAATTCGTAA
DNA 2: TTACGAATTCTTGAGGCAGGCATGGTAGCT
DNA 3: AGCTACCATGCCTGCCTCAAGAATTCGTAATATGCCTACACTGGAGTACCGGAGCATCGTCGTGACTGGGAAAAC
DNA 4: GTTTTCCCAGTCACGACGATGCTCCGGTACTCCAGTGTAGGCATATTACGAATTCTTGAGGCAGGCATGGTAGCT
binding result [4]: binds

B4: partial duplex O1054/O1118 (mixed)
DNA 1: AGCTACCATGCCTGCCTCAAGAATTCGTAA
DNA 2: GTTTTCCCAGTCACGACGATGCTCCGGTACTCCAGTGTAGGCATATTACGAATTCTTGAGGCAGGCATGGTAGCT
binding result [1, 5]: no binding | binding result [2, 5]: binds
